Measured values published in patent US20240067725A1.

Molecular target: full-length human LAG-3 expressed on cells (human) (UniProt P18627)
Test: cell-based or functional assay

full-length human LAG-3 expressed on cells (human), sequence (P18627 23-525 limits assumed): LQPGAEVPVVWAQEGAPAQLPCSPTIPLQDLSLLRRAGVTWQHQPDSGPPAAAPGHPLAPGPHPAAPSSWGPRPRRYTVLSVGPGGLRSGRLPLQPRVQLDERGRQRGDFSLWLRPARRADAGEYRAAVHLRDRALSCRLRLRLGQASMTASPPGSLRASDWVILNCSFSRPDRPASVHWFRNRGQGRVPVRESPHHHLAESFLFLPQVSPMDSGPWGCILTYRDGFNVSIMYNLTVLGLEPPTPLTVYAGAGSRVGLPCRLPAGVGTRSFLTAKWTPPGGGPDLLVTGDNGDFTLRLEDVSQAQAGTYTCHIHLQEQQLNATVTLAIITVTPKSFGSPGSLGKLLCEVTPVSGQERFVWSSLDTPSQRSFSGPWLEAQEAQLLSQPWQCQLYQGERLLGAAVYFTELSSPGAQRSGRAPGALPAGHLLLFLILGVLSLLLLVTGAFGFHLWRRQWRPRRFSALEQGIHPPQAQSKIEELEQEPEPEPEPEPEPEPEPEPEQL

EC50 (nM), IL-2 luciferase reporter gene assay: 2.65 nM
B1: BMK7 (antibody, from another filing, V domains shown)
VH: QVQLVESGGGVVQPGRSLRLSCVASGFTFSSYGMHWVRQAPGKGLEWVAIIWYDGSNKYYADSVKGRFTISRDNSKNTQYLQMNSLRAEDTAVYYCASVATSGDFDYYGMDVWGQGTTVTVSS
VL: EIVLTQSPATLSLSPGERTTLSCRASQRISTYLAWYQQKPGQAPRLLIYDASKRATGIPARFSGSGSGTGFTLTISSLEPEDFAVYYCQQRSNWPLTFGGGTKVEIK
